Assay results: patent publication US20090035266A1 (US Dept. of Health and Human Services, published 2009)

Key:
[1] = target: T1, HLA-A2 molecules on T2 cells (human); assay: T2 cell HLA-A2 upregulation assay, flow cytometry, peptide 25 µg/ml
T1 construct: whole, on cells; MHC class I molecule on the cell surface; also called HLA-A2.1
Description: (§1) The primary amino acid sequence of human PAGE4 was analyzed for consensus motifs for novel HLA-A2 binding peptides. Two 10-mer peptides (P16-25 designated as P16 and P59-68 designated as P59) and one 9-mer peptide (P84-92 designated as P84) were identified and evaluated (Table 1). […] For this reason, five different analogues of native peptides were synthesized and were investigated for their binding ability to HLA-A2-positive T2 cells along with the native P16, P59 and P84 peptides. A MUC-1 peptide and a CEA HLA-A3 binding peptide (CAP-7) were used as a positive and negative control, respectively (Tsang et al., J Natl Cancer Inst 1995; 87:982-90).
Peptides were used at a concentration of 25 μg/ml. Amino acids are shown by the single-letter code. Substitution amino acids are indicated in bold italic and underlined. MUC-1 peptide is an HLA-A2 binding peptide and CAP-7 is an HLA-A3 binding CEA peptide. ^aResults are expressed in mean fluorescence intensity (MFI). Values in parentheses are fold increases as compared with the negative control.

[2] = target: T1, HLA-A2 molecules on T2 cells; assay: T2 cells loaded overnight with 12.5 µg/ml peptide, washed, brefeldin A, surface HLA-A2 by flow cytometry (FIG. 1B)
Description: FIGS. 1A and 1B are line graphs showing the binding of native PAGE4 peptides and their agonist peptides to HLA-A2 molecules. Peptides were analyzed for binding to T2 cell line as described in Example 1. For the results presented in FIG. 1A, peptides were used at concentrations of 0 to 25 μg/ml. P16 peptide (◯), P16-1, P16-2 (▴), P84 (□) and P84-1 (▪), positive control (MUC-1 peptide) (+) and negative control (HLA-A3 binding peptide) (X). Results are expressed in mean fluorescence intensity (MFI). FIG. 1B presents a comparison of the stability of HLA-A2 peptide complexes of PAGE4 native and agonist peptides. T2 cells were incubated overnight with P16 peptide (◯), P16-1, P16-2 (▴), P84 (□) and P84-1 (▪) peptides at a concentration of 12.5 μg/ml and then were washed free of unbound peptide and incubated with brefeldin A to block delivery of new class 1 molecules to the cell surface. At the indicated times, cells were stained for the presence of surface peptide-HLA-A2 complexes. Results are expressed in relative percentage of binding compared with 100% at time 0.
The analogues of P16 were designated P16-1 and P16-2, and the analogue of P84 was designated as P84-1. These peptides bound to HLA-A2 at higher levels than their native peptides. Studies were then conducted to examine the ability of these peptides to bind HLA-A2 at various concentrations. […] Studies were then undertaken to examine the stability of the peptide-MHC complex for the peptides P16, P84, P16-1, P16-2 and P84-1. Each peptide was incubated with T2 cells overnight, the unbound peptides were washed off, and the cells were then incubated with Brefeldin A to block delivery of new class I molecules to the cell surface. Cells were analyzed for the presence of peptide-HLA-A2 complexes at various time points.

[3] = target: T1, HLA-A2 molecules on T2 cells; assay: T2 cell HLA-A2 upregulation assay, flow cytometry
Description: as §1

Row | Binder | T2 binding (MFI) [1] [MFI] | fold increase as compared with the negative control [1] [fold] | percent of peptide-HLA-A2 complexes remaining over 8 hours [2] [%] | binding result [3]
1 | KTPPNPKHA (Synthetic peptide; also called P84-92) [P84 (native) PAGE4 peptide, amino acids 84-92] | 270 | 1.04 | > 43.6 | 
2 | ALWGQDVTSV (Positive control of the T2 assay; also called positive control) [MUC-1 peptide] | 710 | 2.7 |  | 
3 | VEGDCQEMDL (Synthetic peptide; also called P59-68) [P59 (native) PAGE4 peptide, amino acids 59-68] | 246 | 0.9 |  | no binding (tested: 25 µg/ml)
4 | VLGDCQEMDL (also called P59-1) [P59 (60L) PAGE4 analogue peptide] | 293 | 1.1 |  | 
5 | YLPPNPKHV (also called P84-1) [P84 (84Y/85L/92V) PAGE4 agonist peptide] | 546 | 2.1 | > 43.6 | 
6 | QEAPDVVAFV (Synthetic peptide, purity >95%; also called P16-25) [P16 (native) PAGE4 peptide, amino acids 16-25] | 309 | 1.2 |  | 
7 | YLAPDVVAFV (also called P16-2) [P16 (16Y/17L) PAGE4 agonist peptide] | 790 | 3 | > 43.6 | 
8 | QLAPDVVAFV [P16 (17L) PAGE4 agonist peptide] | 827 | 3.2 | > 43.6 | 
9 | YLGDCQEMDV (also called P59-2) [P59 (59Y/60L/68V) PAGE4 analogue peptide] | 384 | 1.5 |  | 
